Target: MERS-CoV RBD Twin-Strep His (wild type, G372-L588) (MERS-CoV)
Experiment: serum pull-down with RBD-TwinStrep on streptavidin magnetic beads

B1: circulating mouse DPP4 (from serum) (receptor)
chain: SRRTYSLADYLKSTFRVKSYSLWWVSDFEYLYKQENNILLLNAEHGNSSIFLENSTFESFGYHSVSPDRLFVLLEYNYVKQWRHSYTASYNIYDVNKRQLITEEKIPNNTQWITWSPEGHKLAYVWKNDIYVKVEPHLPSHRITSTGEENVIYNGITDWVYEEEVFGAYSALWWSPNNTFLAYAQFNDTGVPLIEYSFYSDESLQYPKTVWIPYPKAGAVNPTVKFFIVNIDSLSSSSSAAPIQIPAPASVARGDHYLCDVVWATEERISLQWLRRIQNYSVMAICDYDKINLTWNCPSEQQHVEMSTTGWVGRFRPAEPHFTSDGSSFYKIISDKDGYKHICHFPKDKKDCTFITKGAWEVISIEALTSDYLYYISNQYKEMPGGRNLYKIQLTDHTNVKCLSCDLNPERCQYYAVSFSKEAKYYQLGCWGPGLPLYTLHRSTDHKELRVLEDNSALDRMLQDVQMPSKKLDFIVLNETRFWYQMILPPHFDKSKKYPLLLDVYAGPCSQKADASFRLNWATYLASTENIIVASFDGRGSGYQGDKIMHAINRRLGTLEVEDQIEAARQFVKMGFVDSKRVAIWGWSYGGYVTSMVLGSGSGVFKCGIAVAPVSRWEYYDSVYTERYMGLPIPEDNLDHYRNSTVMSRAEHFKQVEYLLIHGTADDNVHFQQSAQISKALVDAGVDFQAMWYTDEDHGIASSTAHQHIYSHMSHFLQQCFSLH
binding result: no binding

From EP4248993A1 (Charité - Universitätsmedizin Berlin, dated 2023)
